This is an account of results in publication PMC8307404, “Crystal Structure-Guided Design of Bisubstrate Inhibitors and Photoluminescent Probes for Protein Kinases of the PIM Family” (Molecules, 2021).

Square brackets hold non-standard residues; d marks the D form. Peptide text beside a SMILES is read from it. * marks the point of attachment. X3 = O=C(CCCCCNCc1nc2c(sc3cc(Br)cnc32)c(=O)[nH]1)*

Assay in all cases: Kinase profiling (radiometric filter-binding)
Assay type in all cases: biochemical

One data set concerns the target PKBβ (Homo sapiens, UniProt P31751). To be noted: PKB, second of two PKB lines (Greek letter lost; PKBβ), 1 µM inhibitor; read-out: Residual activity, %. The protocol:
(§1) Kinase selectivity profiling was performed using the commercial service provided by the MRC PPU International Centre for Kinase Profiling (Dundee, UK) using a radiometric filter-binding assay. Kinases used for analysis were of human origin. The ATP concentration applied for inhibition measurements was at or below the ATP KM value of the particular PK. ARC-3125 and ARC-3126 were screened against 139 PKs, whereas compounds 1, 2, and 8 were screened against 140 PKs. The final total concentration of inhibitors in the selectivity panel was 1 µM. Residual activities were expressed as the percentage of retained activity compared to the control without inhibitor.

Another data set deals with RSK1 (Homo sapiens, UniProt Q15418). To be noted: RSK1, 1 µM inhibitor; read-out: Residual activity, %. How it is done: as §1
The next data set has as its target T1, TAO1 (Homo sapiens, UniProt Q7L7X3).
T1 sequence (Q7L7X3 1-1001): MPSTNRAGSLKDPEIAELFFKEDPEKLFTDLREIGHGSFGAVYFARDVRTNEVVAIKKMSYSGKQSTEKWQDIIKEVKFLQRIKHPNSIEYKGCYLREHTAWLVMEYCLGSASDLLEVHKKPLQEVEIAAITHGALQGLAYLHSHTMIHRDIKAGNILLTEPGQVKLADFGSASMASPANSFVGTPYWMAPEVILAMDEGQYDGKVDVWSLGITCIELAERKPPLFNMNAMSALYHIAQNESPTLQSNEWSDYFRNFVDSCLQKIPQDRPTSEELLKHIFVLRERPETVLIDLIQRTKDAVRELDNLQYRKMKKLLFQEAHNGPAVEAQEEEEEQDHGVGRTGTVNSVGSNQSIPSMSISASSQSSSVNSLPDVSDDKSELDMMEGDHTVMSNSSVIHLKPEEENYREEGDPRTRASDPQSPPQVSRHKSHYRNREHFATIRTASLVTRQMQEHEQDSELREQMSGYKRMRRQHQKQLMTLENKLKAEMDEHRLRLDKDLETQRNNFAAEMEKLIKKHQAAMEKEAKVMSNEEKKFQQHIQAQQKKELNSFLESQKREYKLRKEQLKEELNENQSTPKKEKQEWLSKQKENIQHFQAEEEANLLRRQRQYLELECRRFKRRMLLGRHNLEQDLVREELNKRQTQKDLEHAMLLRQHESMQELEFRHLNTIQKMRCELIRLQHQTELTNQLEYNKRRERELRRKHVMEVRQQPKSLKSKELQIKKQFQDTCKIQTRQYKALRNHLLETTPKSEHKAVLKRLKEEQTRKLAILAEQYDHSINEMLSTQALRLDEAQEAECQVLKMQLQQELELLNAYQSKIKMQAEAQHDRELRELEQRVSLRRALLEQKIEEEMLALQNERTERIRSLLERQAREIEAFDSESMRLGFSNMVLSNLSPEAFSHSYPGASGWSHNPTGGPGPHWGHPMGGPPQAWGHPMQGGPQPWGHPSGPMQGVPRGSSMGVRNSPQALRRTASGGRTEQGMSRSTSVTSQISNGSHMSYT
To be noted: TAO1, 1 µM inhibitor; read-out: Residual activity, %. The protocol: as §1

The next data set deals with DAPK1 (Homo sapiens, UniProt P53355). The note with it: DAPK1, 1 µM inhibitor; read-out: Residual activity, %. The protocol:
as §1

Another data set addresses p38 MAPK (Homo sapiens, UniProt Q15759). To be noted: second of four lines (Greek letter lost), 1 µM inhibitor, read-out: Residual activity, %. How it is done:
as §1

A further data set deals with RIPK2 (Homo sapiens, UniProt O43353). To be noted: RIPK2, 1 µM inhibitor; read-out: Residual activity, %. How it is done:
as §1

The target in the next data set is T2, TBK1 (Homo sapiens, UniProt Q9UHD2).
T2 sequence (Q9UHD2 1-729): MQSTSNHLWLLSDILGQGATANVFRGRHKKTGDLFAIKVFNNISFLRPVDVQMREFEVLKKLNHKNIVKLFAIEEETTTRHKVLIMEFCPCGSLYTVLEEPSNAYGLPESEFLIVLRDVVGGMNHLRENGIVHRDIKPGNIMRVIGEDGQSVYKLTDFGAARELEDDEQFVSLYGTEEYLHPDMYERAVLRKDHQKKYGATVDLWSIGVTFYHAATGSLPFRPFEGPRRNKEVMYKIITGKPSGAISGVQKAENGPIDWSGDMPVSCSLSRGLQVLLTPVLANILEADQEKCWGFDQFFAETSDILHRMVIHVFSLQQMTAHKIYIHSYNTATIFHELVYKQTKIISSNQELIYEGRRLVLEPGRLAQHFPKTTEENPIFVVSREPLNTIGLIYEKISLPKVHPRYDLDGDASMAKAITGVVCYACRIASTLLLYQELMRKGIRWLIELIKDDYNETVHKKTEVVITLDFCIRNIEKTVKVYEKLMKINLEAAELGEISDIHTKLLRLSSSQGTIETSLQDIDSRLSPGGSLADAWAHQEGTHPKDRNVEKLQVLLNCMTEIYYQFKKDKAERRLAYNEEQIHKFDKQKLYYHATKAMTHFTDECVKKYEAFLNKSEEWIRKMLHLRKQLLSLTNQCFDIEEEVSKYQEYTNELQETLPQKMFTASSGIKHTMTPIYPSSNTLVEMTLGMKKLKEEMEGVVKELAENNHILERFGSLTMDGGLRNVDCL
The note with it: TBK1, 1 µM inhibitor; read-out: Residual activity, %. The protocol:
as §1

The target in the next data set is DYRK1A (Homo sapiens, UniProt Q13627). The note with it: 1 µM inhibitor, read-out: Residual activity, %. How it is done:
as §1

In another data set the target is TTBK2 (Homo sapiens, UniProt Q6IQ55). To be noted: TTBK2, 1 µM inhibitor; read-out: Residual activity, %. The protocol: as §1
The next data set concerns the target CAMKKb (Homo sapiens, UniProt Q96RR4). To be noted: 1 µM inhibitor, read-out: Residual activity, %. How it is done: as §1
Another data set addresses JNK3 (Homo sapiens, UniProt P53779). The note with it: JNK3, 1 µM inhibitor; read-out: Residual activity, %. How it is done: as §1
A further data set has as its target IR (Homo sapiens, UniProt P06213). To be noted: 1 µM inhibitor, read-out: Residual activity, %. How it is done:
as §1

The target of another data set is CAMK1 (Homo sapiens, UniProt Q14012). To be noted: CAMK1, 1 µM inhibitor; read-out: Residual activity, %. The protocol: as §1
A further data set has as its target TrkA (Homo sapiens, UniProt P04629). To be noted: 1 µM inhibitor, read-out: Residual activity, %. The protocol:
as §1

Chain of p38 MAPK (Q15759 whole entry): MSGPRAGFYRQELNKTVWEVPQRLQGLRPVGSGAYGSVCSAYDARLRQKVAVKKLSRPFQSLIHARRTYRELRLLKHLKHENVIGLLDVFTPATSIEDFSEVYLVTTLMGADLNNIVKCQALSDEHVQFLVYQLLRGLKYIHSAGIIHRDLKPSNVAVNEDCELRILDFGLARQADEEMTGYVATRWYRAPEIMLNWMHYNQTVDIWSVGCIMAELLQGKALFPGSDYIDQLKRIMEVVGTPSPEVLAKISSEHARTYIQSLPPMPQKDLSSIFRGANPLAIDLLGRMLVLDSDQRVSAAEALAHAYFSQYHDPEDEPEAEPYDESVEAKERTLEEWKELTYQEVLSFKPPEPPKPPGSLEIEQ
Chain of PKBβ (P31751 whole entry): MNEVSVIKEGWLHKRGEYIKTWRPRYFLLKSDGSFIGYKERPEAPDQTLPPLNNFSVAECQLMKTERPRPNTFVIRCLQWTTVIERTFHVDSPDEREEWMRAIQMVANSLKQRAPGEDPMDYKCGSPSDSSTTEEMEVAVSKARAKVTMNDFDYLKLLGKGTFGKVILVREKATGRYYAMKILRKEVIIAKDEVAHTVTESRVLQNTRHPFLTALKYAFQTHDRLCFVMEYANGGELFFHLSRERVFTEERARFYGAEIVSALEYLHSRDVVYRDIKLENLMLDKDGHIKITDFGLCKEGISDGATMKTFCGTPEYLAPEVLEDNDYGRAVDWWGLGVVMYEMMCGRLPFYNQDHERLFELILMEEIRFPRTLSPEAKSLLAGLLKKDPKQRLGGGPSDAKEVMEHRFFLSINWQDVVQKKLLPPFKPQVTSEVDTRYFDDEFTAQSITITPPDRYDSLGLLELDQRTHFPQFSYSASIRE
Chain of CAMKKb (Q96RR4 whole entry): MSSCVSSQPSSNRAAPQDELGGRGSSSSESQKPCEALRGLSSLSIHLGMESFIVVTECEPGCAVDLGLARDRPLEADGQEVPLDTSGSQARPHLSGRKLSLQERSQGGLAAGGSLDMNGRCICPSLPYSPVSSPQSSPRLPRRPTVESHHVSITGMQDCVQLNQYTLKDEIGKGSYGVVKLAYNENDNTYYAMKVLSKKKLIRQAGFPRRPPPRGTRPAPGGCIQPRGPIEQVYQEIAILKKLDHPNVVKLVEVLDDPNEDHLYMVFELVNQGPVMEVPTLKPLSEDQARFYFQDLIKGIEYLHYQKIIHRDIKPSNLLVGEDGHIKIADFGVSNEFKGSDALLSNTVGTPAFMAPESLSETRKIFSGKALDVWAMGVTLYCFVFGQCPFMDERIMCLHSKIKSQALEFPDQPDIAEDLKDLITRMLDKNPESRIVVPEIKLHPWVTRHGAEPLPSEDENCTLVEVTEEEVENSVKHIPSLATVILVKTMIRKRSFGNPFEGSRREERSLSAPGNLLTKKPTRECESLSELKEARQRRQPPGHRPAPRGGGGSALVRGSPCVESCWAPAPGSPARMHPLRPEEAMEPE
Chain of TTBK2 (Q6IQ55 whole entry): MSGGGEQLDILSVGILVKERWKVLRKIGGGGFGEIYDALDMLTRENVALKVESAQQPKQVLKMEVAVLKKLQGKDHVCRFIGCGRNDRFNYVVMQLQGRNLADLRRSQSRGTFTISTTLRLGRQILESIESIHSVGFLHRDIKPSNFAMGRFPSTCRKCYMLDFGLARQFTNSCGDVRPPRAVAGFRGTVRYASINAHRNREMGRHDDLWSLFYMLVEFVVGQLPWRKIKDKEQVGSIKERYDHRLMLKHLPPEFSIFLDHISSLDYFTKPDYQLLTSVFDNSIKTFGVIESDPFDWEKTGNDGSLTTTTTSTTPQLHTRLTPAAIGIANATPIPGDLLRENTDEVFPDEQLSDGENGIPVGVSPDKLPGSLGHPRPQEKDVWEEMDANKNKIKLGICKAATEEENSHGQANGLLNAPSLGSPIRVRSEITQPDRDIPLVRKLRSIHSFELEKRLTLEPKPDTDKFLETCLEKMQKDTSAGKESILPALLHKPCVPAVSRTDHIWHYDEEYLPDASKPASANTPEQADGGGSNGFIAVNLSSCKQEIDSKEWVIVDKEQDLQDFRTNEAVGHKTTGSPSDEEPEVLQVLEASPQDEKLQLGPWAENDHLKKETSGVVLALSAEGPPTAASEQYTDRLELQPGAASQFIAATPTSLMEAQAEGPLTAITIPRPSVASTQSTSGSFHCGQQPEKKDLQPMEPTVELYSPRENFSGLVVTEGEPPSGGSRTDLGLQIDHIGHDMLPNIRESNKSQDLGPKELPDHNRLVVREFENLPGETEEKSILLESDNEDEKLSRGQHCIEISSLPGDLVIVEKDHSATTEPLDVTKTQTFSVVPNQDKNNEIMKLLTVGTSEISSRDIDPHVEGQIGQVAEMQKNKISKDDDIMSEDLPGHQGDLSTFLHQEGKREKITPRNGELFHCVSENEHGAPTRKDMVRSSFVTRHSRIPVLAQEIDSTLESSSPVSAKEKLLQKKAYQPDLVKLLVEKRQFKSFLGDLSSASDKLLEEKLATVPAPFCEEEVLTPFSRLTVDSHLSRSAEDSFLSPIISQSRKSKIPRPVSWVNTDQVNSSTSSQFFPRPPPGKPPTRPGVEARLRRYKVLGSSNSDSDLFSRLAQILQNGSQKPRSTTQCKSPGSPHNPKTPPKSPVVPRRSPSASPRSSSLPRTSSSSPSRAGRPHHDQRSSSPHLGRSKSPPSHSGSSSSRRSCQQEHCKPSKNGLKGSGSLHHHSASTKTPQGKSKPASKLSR
Chain of JNK3 (P53779 whole entry): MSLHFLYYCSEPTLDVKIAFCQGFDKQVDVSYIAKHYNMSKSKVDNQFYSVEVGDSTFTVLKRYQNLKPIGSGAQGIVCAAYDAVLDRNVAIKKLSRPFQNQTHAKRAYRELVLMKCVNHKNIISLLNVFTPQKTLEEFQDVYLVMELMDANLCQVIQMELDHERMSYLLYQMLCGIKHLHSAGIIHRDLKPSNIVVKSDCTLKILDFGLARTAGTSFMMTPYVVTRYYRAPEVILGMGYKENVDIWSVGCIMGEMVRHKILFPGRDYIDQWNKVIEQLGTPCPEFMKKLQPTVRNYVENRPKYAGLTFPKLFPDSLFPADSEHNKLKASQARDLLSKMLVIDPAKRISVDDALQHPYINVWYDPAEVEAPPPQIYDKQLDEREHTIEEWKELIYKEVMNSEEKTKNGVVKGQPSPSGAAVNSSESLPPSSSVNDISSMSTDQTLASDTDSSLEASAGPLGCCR
Chain of CAMK1 (Q14012 whole entry): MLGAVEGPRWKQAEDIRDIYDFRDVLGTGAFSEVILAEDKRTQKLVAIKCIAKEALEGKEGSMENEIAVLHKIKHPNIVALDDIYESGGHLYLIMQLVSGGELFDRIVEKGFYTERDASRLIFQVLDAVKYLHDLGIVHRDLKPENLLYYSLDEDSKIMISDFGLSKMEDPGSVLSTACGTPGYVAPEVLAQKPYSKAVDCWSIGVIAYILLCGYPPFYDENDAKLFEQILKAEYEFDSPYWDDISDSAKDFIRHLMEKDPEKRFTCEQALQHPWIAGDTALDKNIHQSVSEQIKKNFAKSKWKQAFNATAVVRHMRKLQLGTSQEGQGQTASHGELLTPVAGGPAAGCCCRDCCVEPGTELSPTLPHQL
Chain of IR (P06213 28-1382): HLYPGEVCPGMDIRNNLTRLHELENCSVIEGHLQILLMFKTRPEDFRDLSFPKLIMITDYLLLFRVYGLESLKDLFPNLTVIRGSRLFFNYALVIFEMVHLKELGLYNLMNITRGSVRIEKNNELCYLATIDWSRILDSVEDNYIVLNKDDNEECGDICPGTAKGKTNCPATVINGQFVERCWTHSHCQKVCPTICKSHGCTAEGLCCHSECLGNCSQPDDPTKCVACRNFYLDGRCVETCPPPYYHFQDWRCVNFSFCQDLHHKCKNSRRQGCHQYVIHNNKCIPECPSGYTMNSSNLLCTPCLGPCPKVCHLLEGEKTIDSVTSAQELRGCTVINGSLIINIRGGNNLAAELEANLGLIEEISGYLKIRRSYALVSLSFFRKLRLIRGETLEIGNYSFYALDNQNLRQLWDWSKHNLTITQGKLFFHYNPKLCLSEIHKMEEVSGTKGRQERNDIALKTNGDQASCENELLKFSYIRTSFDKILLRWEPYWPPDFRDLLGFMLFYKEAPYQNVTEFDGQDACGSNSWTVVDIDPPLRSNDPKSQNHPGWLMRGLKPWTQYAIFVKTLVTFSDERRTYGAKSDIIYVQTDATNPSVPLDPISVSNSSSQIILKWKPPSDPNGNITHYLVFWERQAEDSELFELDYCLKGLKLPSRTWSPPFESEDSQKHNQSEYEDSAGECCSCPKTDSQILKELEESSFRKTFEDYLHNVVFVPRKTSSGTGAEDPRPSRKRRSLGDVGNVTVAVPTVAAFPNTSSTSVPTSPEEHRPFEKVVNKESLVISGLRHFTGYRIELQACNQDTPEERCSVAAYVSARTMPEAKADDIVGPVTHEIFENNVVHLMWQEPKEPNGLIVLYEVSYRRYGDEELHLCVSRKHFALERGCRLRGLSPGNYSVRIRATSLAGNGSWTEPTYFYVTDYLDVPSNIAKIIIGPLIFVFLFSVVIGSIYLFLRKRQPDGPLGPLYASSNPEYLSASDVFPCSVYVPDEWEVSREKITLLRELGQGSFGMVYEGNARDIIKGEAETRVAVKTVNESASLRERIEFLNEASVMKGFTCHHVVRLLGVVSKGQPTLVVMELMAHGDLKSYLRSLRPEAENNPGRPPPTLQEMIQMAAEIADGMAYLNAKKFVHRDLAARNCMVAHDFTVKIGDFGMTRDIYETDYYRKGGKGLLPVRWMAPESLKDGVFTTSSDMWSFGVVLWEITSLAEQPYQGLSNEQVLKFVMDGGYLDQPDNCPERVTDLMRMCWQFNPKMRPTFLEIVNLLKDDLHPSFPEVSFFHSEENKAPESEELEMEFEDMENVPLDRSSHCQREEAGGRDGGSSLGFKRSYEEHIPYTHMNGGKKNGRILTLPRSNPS

As to `N=C(N)NCCC[C@@H](NC(=O)CCCCCNCc1nc2c(sc3cc(Br)cnc32)c(=O)[nH]1)C(=O)N[C@H](CCCNC(=N)N)C(=O)N[C@H](CCCNC(=N)N)C(=O)N[C@H](CCCNC(=N)N)C(=O)N[C@H](CCCNC(=N)N)C(=O)N[C@H](CCCNC(=N)N)C(=O)N[C@H](CCCCN)C(N)=O` [ARC-3126, BPTP-Ahx-(D-Arg)6-D-Lys-NH2] (X3-[dR][dR][dR][dR][dR][dR][dK]-NH2), the remaining activity at 1 µM is 86 ± 10% in the data set with PKBβ; 82 ± 10% with RSK1; 95 ± 3% with TAO1; 49 ± 18% in the data set with DAPK1; 94 ± 4% in the data set with p38 MAPK; 99 ± 6% in the data set with RIPK2. In addition, the remaining activity at 1 µM with TBK1 was determined as 105 ± 12%; with DYRK1A it was 99 ± 6%; in the data set with TTBK2, 77 ± 2%; in the data set with CAMKKb it was 104 ± 13%; with JNK3, 121 ± 5%; in the data set with IR, 117 ± 6%. Further, the remaining activity at 1 µM with CAMK1 amounted to 55 ± 9%; with TrkA, 112 ± 21%.

Take `CN(C)c1ccc2c(c1)Oc1cc(N(C)C)ccc1C21OC(=O)c2cc(C(=O)NCCCC[C@@H](NC(=O)[C@@H](CCCNC(=N)N)NC(=O)CNC(=O)[C@@H](CCCNC(=N)N)NC(=O)[C@@H](CCCNC(=N)N)NC(=O)CCCCc3cn(Cc4nc5c(sc6ccc(Br)cc65)c(=O)[nH]4)nn3)C(N)=O)ccc21` [Compound 8, BBTP-Tap-(D-Arg)2-Gly-D-Arg-[D-Lys(5-TAMRA)]-NH2]: the remaining activity at 1 µM was found to be 54% in the data set with PKBβ; 74% with RSK1; 80% in the data set with TAO1; 46% in the data set with TBK1; 37% in the data set with DYRK1A; 49% with CAMK1.

Consider `N=C(N)NCCC[C@@H](NC(=O)CNC(=O)[C@@H](CCCNC(=N)N)NC(=O)[C@@H](CCCNC(=N)N)NC(=O)CCCCCCCNCc1nc2c(sc3ccc(Br)cc32)c(=O)[nH]1)C(=O)N[C@H](CCCCN)C(N)=O` [Compound 2, BBTP-Aoc-(D-Arg)2-Gly-D-Arg-D-Lys-NH2], for which the remaining activity at 1 µM with PKBβ came out at 101%; with RSK1 it was 31%; with TAO1 it was 49%; with DAPK1 it was 60 ± 11%; with p38 MAPK, 113 ± 4%; with RIPK2, 72%. The remaining activity at 1 µM with TBK1 came to 113%; with DYRK1A, 5%; with TTBK2, 125 ± 12%; with CAMKKb, 108 ± 1%; in the data set with JNK3, 108 ± 3%; with IR, 139 ± 35%. Besides, the remaining activity at 1 µM in the data set with CAMK1 amounted to 81%; with TrkA it was 128 ± 13%.

Regarding `N=C(N)NCCC[C@@H](NC(=O)CNC(=O)[C@@H](CCCNC(=N)N)NC(=O)[C@@H](CCCNC(=N)N)NC(=O)Cn1cc(CNCc2nc3c(sc4ccc(Br)cc43)c(=O)[nH]2)nn1)C(=O)N[C@H](CCCCN)C(N)=O` [Compound 3, BBTP-Amt-(D-Arg)2-Gly-D-Arg-D-Lys-NH2], the remaining activity at 1 µM worked out at 54 ± 6% with PKBβ; 74 ± 12% with RSK1; 80 ± 4% with TAO1; 88 ± 3% in the data set with DAPK1; 100 ± 6% with p38 MAPK; 71 ± 8% in the data set with RIPK2. Besides, the remaining activity at 1 µM in the data set with TBK1 turned out to be 46 ± 4%; with DYRK1A it was 37 ± 15%; in the data set with TTBK2, 105 ± 15%; with CAMKKb it was 85 ± 4%; with JNK3, 113 ± 22%; with IR, 113 ± 23%. The remaining activity at 1 µM with CAMK1 came to 49 ± 11%; with TrkA, 95 ± 2%.

For the compound `N=C(N)NCCC[C@@H](NC(=O)CCCCCNC(=O)Cn1cnc2c(I)c(I)c(I)c(I)c21)C(=O)N[C@H](CCCNC(=N)N)C(=O)N[C@H](CCCNC(=N)N)C(=O)N[C@H](CCCNC(=N)N)C(=O)N[C@H](CCCNC(=N)N)C(=O)N[C@H](CCCNC(=N)N)C(=O)N[C@H](CCCCN)C(N)=O` [ARC-3125, TIBI-CH2-C(=O)-Ahx-(D-Arg)6-D-Lys-NH2], the remaining activity at 1 µM with PKBβ is 1 ± 1%; with RSK1, 19 ± 1%; with TAO1 it was 32 ± 6%; in the data set with DAPK1, 18 ± 1%; in the data set with p38 MAPK it was 80 ± 6%; with RIPK2, 37 ± 6%. For the same compound, the remaining activity at 1 µM with TBK1 was found to be 68 ± 3%; with DYRK1A, 28 ± 7%; with TTBK2 it was 101 ± 24%; with CAMKKb, 47 ± 1%; with JNK3 it was 120 ± 2%; in the data set with IR it was 22 ± 6%. Besides, the values for the remaining activity at 1 µM in the data set with CAMK1 and in the data set with TrkA were 3 ± 11% and 97 ± 7%, respectively.

With `N=C(N)NCCC[C@@H](NC(=O)CNC(=O)[C@@H](CCCNC(=N)N)NC(=O)[C@@H](CCCNC(=N)N)NC(=O)CCCCCCCNCc1nc2c(sc3cc(Br)cnc32)c(=O)[nH]1)C(=O)N[C@H](CCCCN)C(N)=O` [Compound 1, BPTP-Aoc-(D-Arg)2-Gly-D-Arg-D-Lys-NH2], the remaining activity at 1 µM with PKBβ amounted to 115 ± 26%; with RSK1, 95%; in the data set with TAO1 it was 106 ± 10%; with DAPK1, 85 ± 3%; with p38 MAPK it was 108 ± 14%; with RIPK2 it was 62 ± 7%. In addition, the remaining activity at 1 µM with TBK1 amounted to 113 ± 29%; in the data set with DYRK1A, 74%; in the data set with TTBK2 it was 109 ± 6%; in the data set with CAMKKb, 117 ± 1%; with JNK3 it was 92%; with IR, 122 ± 7%. Also, the remaining activity at 1 µM with CAMK1 stood at 81 ± 18%; in the data set with TrkA it was 106 ± 17%.
